This is an account of results in publication PMC11705696.

The target of this series is AjFoxO (rAjFoxO) (Apostichopus japonicus, UniProt A0A2G8KG36 1-567). The series can be described thus: EMSA. For orientation: In EMSA bound probe runs differently from free probe, usually more slowly.

B1: AjATG4 Mut probe (dsDNA)
DNA 1: TTTACGGCGCGACAAAACGTCATCAACC
DNA 2: GGTTGATGACGTTTTGTCGCGCCGTAAA
Take B1: the binding result is “no binding”.

B2: AjATG4 WT probe (dsDNA)
DNA 1: TTTACGGCGCCTGTTTACGTCATCAACC
DNA 2: GGTTGATGACGTAAACAGGCGCCGTAAA
Turning to B2, the binding result is recorded as “binds”.

B3: AjLC3 Mut probe (dsDNA)
DNA 1: ATATCCTTTTGTGACACCTTCGGAAAG
DNA 2: CTTTCCGAAGGTGTCACAAAAGGATAT
B3: the binding result is listed as “no binding”.

B4: AjLC3 WT probe (dsDNA)
DNA 1: ATATCCTTTTGTCTGTTTTTCGGAAAG
DNA 2: CTTTCCGAAAAACAGACAAAAGGATAT
Consider B4, for which the binding result is “binds”.
